According to the RNAGym collection of RNA variant scans (doi:10.7554/elife.80360):

B1: HDV Ribozyme (parent)
chain: GGCCGGCAUGGUCCCAGCCUCCUCGCUGGCGCCGGCUGGGCAACAUUCCGAGGGGACCGUCCCCUCGGUAAUGGCGAAUGGGACCCA

Variants of: B1
Experiment: self-cleavage, relative activity (ratio to wild type); higher = more cleavage; co-transcriptional

First: GGCCGGCAUGGUCCCAGCCUCCUCGCUGGCGCCGGCUGGGCAACAUUCCGAGGAGACCGUCCCCUCGGUAAUGGCGAAUGGGACCCC
Second: GGCCGGCAUGGUCCCAGCCUGCUCGCUGGCGCCGGAUGGGCAACAUUCCGAGGGGACCGUCCCCUCGGUAAUGGCGAAUGGGACCCA
The self-cleavage of the first is higher: 1.06 for the first, 0.0405 for the second.

Going from GGCCGGCAUGGUUCCAGCCUCCUCGCUGGCGCCGGCUGGGCAACAUUCCGAGGGGACCGACCCCUCGGUAAUGGCGAAUGGGACCCA to GGCCGGCAUGGUCCCAGCUUCCUCUCUGGCGCCGGCUGGGCAACAUUCCGAGGGGACCGUCCCCUCGGUAAUGGCGAAUGGGACCCA, the self-cleavage falls from 0.554 to 0.188.

Going from GGCGGGCAUGGUCCCAGCCUCGUCGCUGGCGCCGGCUGGGCAACAUUCCGAGGGGACCGUCCCCUCGGUAAUGGCGAAUGGGACCCA to GGCCGGCAUGGCCCCAGCCUCCUCGCUGGCGCCGGCUGGGCAACAUUCCGAGGGGACCGUCUCCUCGGUAAUGGCGAAUGGGACCCA, the self-cleavage rises from 0 to 0.348.

Going from GGCCGGCAUGGUCCCAGCCUCCUAGCCGGCGCCGGCUGGGCAACAUUCCGAGGGGACCGUCCCCUCGGUAAUGGCGAAUGGGACCCA to GGCCGGCAUGGUCCCAGCCCCCUCGCUGGCGCCGGCUGGGCAACAUUCCGAGGGGACCGUCCCCUCGGUAACGGCGAAUGGGACCCA, the self-cleavage falls from 0.0791 to 0.0755.

Compared with GGCCGGCAUGGUCCCAGCCUACUCGCUGGCGCCGGCUGGGCAACAUUCCGAGGGGACCGUCCCCUCGGUAAAGGCGAAUGGGACCCA, GGCCGGGAUGGUCCCAGCCUCCUCGCUGGCGCCGGCUGGGCAACAUUCCGAGUGGACCGUCCCCUCGGUAAUGGCGAAUGGGACCCA is higher in self-cleavage: 0 for the first, 0.26 for the second.

First: GGCCGGCAUGGUCCCAGCCUCCUCGCUGGCGCCCGCUGGGCAAUAUUCCGAGGGGACCGUCCCCUCGGUAAUGGCGAAUGGGACCCA
Second: GGCCGCCGUGGUCCCAGCCUCCUCGCUGGCGCCGGCUGGGCAACAUUCCGAGGGGACCGUCCCCUCGGUAAUGGCGAAUGGGACCCA
The self-cleavage of the first is lower: 0.0739 for the first, 0.332 for the second.

First: GGCCGGCAUGGUCCCUGCCUCCUCGCUGGCGCCGGCUGGGCAACAUUCCGAGGGGACCGUCCCAUCGGUAAUGGCGAAUGGGACCCA
Second: GGCCGGCAUGGUCCCAGCCUCCUCGCUGGCGCCGGCUGGUCGACAUUCCGAGGGGACCGUCCCCUCGGUAAUGGCGAAUGGGACCCA
The self-cleavage of the first is higher: 0.743 for the first, 0.306 for the second.

First: GGCCGGCAUGGUCCCAGCCUCCUCGCUGGCGCCGGCUGGCCAACAUUCCGAGGGGACCGUCCCCUCGGUAAUGGUGAAUGGGACCCA
Second: GGCCGGCAUGGUCCCAGCCUCCUCGCUGGCGCCGGCUGUGCAACAUUCUGAGGGGACCGUCCCCUCGGUAAUGGCGAAUGGGACCCA
The self-cleavage of the first is lower: 0.0652 for the first, 0.649 for the second.

Compared with GGCCGGCAUGGUCCCAGGCUCCUCGCUGGCGCCGGCUGGGCAACAUUCCGAGGGGACCUUCCCCUCGGUAAUGGCGAAUGGGACCCA, GGCCGGCAUGGUCCCAGCCUCCUCGCUGGCGCCGGCUGAGCAACAUUCCGAGGGGACCGUCCCCUCGGUAAUGGCGAAUGGGACUCA is higher in self-cleavage: 0.312 for the first, 0.465 for the second.

Going from GGCCGGCAUGGUCCCCGCCUCCUCGCUGGCGCCGGCUGGGCAACAUUCCGAGGGGACCGUCCCCUCGGUAAUGGGGAAUGGGACCCA to GGCCGGCAUGGUCCCAUCCUCCUCGCUGGCGCCGGCUGGGCAACAUUACGAGGGGACCGUCCCCUCGGUAAUGGCGAAUGGGACCCA, the self-cleavage rises from 0.268 to 0.538.

First: AGCCGGCAUGGUCCCAGCCUCCUCGCUGGCGCCGGCUGGGCAACAUUCCGAGGAGACCGUCCCCUCGGUAAUGGCGAAUGGGACCCA
Second: GGCCGGCAUGGUCCCAGCCUCCUCGCUGGCGCCGGCUGGGGAACAUUCCGAGGGGACCGUCCCCUCGGCAAUGGCGAAUGGGACCCA
The self-cleavage of the first is lower: 0.172 for the first, 0.772 for the second.

First: GGACGGCAUGGUCCCAGCCUCCUCGCUGGCGCCAGCUGGGCAACAUUCCGAGGGGACCGUCCCCUCGGUAAUGGCGAAUGGGACCCA
Second: GGCCGGCAUCGUCCAAGCCUCCUCGCUGGCGCCGGCUGGGCAACAUUCCGAGGGGACCGUCCCCUCGGUAAUGGCGAAUGGGACCCA
The self-cleavage of the first is lower: 0.123 for the first, 0.237 for the second.

Compared with GGCCGGCAUGGUCCCAGCCUCCUCGCUGGCGCCGGCUGGGCAACAUUCCGAGGGGACCGUCCCCUCAGUAAUGGCGAAUGGGAGCCA, GGACGGCAUGGUCCCAGCCUCCUCGCUGGCGCCGGCUGGGCAACAUUCCGAGGGGACCGUCCCCUAGGUAAUGGCGAAUGGGACCCA is higher in self-cleavage: 0.369 for the first, 0.473 for the second.

Going from GGCCGGCAUGGUCCCAGCCUCCUCGCUGGCGCCUGCUGGGCAACAUUCCGAGGGGACCGUCCCCUCGGUAAUGGCAAAUGGGACCCA to GGCCCGCAUGGUCCCAGCCUCCUCGCUGGCGCCGGCUGGGCAACAUUGCGAGGGGACCGUCCCCUCGGUAAUGGCGAAUGGGACCCA, the self-cleavage falls from 0.231 to 0.0755.

First: GGCCGGCAUGGUCCCAGCCUCCUCGCUGGCGCCGGCUGGGCAACAUUCCGAGGGGACCGUCCCCUCGGUAAUGGCGAAUGGCAGCCA
Second: GGCCGGCAUGGUCCCAGCCUCCUCGCUGGCGCCGGCUGGGCAAUAUUCCGAGGGGACCGUCCCCUCCGUAAUGGCGAAUGGGACCCA
The self-cleavage of the first is lower: 0.101 for the first, 0.755 for the second.

First: GGCCGGCAUGGUCCCAGCCUCCUCGCUGGCGCCGGCUGGGCAUCAUUCCGAGGGGACCGUCCCCUCGGUUAUGGCGAAUGGGACCCA
Second: GGCCGUCAUCGUCCCAGCCUCCUCGCUGGCGCCGGCUGGGCAACAUUCCGAGGGGACCGUCCCCUCGGUAAUGGCGAAUGGGACCCA
The self-cleavage of the first is higher: 0.59 for the first, 0.364 for the second.

First: GGCCGACAUGGACCCAGCCUCCUCGCUGGCGCCGGCUGGGCAACAUUCCGAGGGGACCGUCCCCUCGGUAAUGGCGAAUGGGACCCA
Second: GGCCGGCAUGGUCCCAGCCUCCUCGCUGGCGCCGGCUGGGCAACAUUCCGAGGGGACCGUACCCUCGGUAAUGGCGGAUGGGACCCA
The self-cleavage of the first is lower: 0.253 for the first, 1.03 for the second.

First: GGCCGGCAUGGUCCCAGCCUCCUCGCUGGCGCCGGCUGGGCAACAUUCCGAGGUGACCGUCCCCUUGGUAAUGGCGAAUGGGACCCA
Second: GGCCGGCAUGGUCCCAGCCUCCUCGCUGGCGCCGGCUGGGCAACAUUGCGAGGGGACCGUCCCCUCGGUAAUGGCGAAUGGGACCAA
The self-cleavage of the first is lower: 0.914 for the first, 1.09 for the second.

First: GGCCGGCAUGGUCCCAGCCUCCUCGCUGGCGCCGGCUGGGCAACAUUCCGAGGGGACCGUCCCUUCGGUAAUGCCGAAUGGGACCCA
Second: GGCCGGCAUGGUCCCAGCCUCCUCGAUGGCGCCGGCUGGGCAACAUUCCGAGGGGACCGUCCCCUCGGUAAUGGCGAGUGGGACCCA
The self-cleavage of the first is lower: 0.128 for the first, 0.831 for the second.

Going from GGCCGGCAUGGUCCCAGCCUCCUCGCUGGCGCCGGCUGGGCAACAAUCCGAGGGGACCGUCCCCUCGGUAAUGGCGAAUGGGUCCCA to GGCAGGCAUGGUCCCAGCCUCCUCGCUGGCGCCGGCUGGGCAACAUUCCGAGGGGACCGUCCCCUCGGUAAUGGCGAAUGUGACCCA, the self-cleavage falls from 0.277 to 0.128.

First: GGGCGGCAUGGUCCCAGCCUCCUCGCUGGCGCCGGCUGGGCAACAGUCCGAGGGGACCGUCCCCUCGGUAAUGGCGAAUGGGACCCA
Second: GGCCGGCAUGGUCCCAGCCUCCUCGCUGGCGCCGGCUGGGCAACAUUCCAAGGGGACCGUCCCCUCGGUAAUGGCGAAUGGGACCUA
The self-cleavage of the first is lower: 0.248 for the first, 1.06 for the second.

First: GGCCGGCAUGGUCCCAGCCUCCUCGCUGGCGCCGGCUGGGCAACAUUCCGAGGGGACCGUCCCCUCGGGAAUGGCGAAUGAGACCCA
Second: GGCCGGCAUGGUCCCAGCCUCCUCGCUGGCGCCGGCUAGGCAACAUUCCGAAGGGACCGUCCCCUCGGUAAUGGCGAAUGGGACCCA
The self-cleavage of the first is higher: 0.469 for the first, 0.173 for the second.

Compared with GGCCGGCAUGGUCCCAGCCUCCUCGCUGGCGCCGGCUGGGCAACAUUCCGAGGGGACUGUCCCCUCGGUAAUGGCGAAUGGGACCCC, GGCCGGCAUGUUCCCAGCCUCCUCGCUGGCGUCGGCUGGGCAACAUUCCGAGGGGACCGUCCCCUCGGUAAUGGCGAAUGGGACCCA is lower in self-cleavage: 0.905 for the first, 0.215 for the second.

Compared with GGCCGGCAUGGUCCCAGCCUCCUCGCUGGCCCCGGCUGGGCAACAUUCCGAGGGGACCGUCCCCUCGGUAAUGGCGAAUGGGAGCCA, GGCCGGCAUGGUCCCAGCCUCCUCGCUGGCUCCGACUGGGCAACAUUCCGAGGGGACCGUCCCCUCGGUAAUGGCGAAUGGGACCCA is lower in self-cleavage: 0.193 for the first, 0.17 for the second.

Going from GGCCGGCGUGGUCCCAGCCUCCUCGCUGGCGCCGGCUGGGCAAGAUUCCGAGGGGACCGUCCCCUCGGUAAUGGCGAAUGGGACCCA to GGCCGGCAUGGUCCCAGCCUCCUCGCUGGCGCCGGCUGGGCAACAUUCCAAGGGGACCGUCCCCUCGCUAAUGGCGAAUGGGACCCA, the self-cleavage rises from 0.499 to 0.631.

First: GGCCGGCAUGGUCCCAGCCUCCUCGCUGGGGCCGGCCGGGCAACAUUCCGAGGGGACCGUCCCCUCGGUAAUGGCGAAUGGGACCCA
Second: GGCCGGCACGGUCCCAGCCUCCUCGCUGACGCCGGCUGGGCAACAUUCCGAGGGGACCGUCCCCUCGGUAAUGGCGAAUGGGACCCA
The self-cleavage of the first is lower: 0 for the first, 0.222 for the second.

Compared with GGCCGACAUGGUCCCAGCCUCCUCGCUGGCGCCGGCUGGGCAACAUUCCCAGGGGACCGUCCCCUCGGUAAUGGCGAAUGGGACCCA, GGCCGGCAUGGUCCCAGCCUCCUCGCUGGCGCCGGCUGGGCAACAGUCCGAGGGGACCGUCCCCUCAGUAAUGGCGAAUGGGACCCA is lower in self-cleavage: 0.767 for the first, 0.527 for the second.

Going from GGCCGGCAUGGUCCCAGCCUCCUCGCUGGCGCCGGCGGGGCAACAUUCCGAGGGGACCGUCCCCGCGGUAAUGGCGAAUGGGACCCA to GCCCGGCAUGGUCCCAGCCUCCUCGCUGGCGCCGGCUGGGCAACAUUCCGAGGGCACCGUCCCCUCGGUAAUGGCGAAUGGGACCCA, the self-cleavage rises from 0.0573 to 0.0656.

Compared with GGCCUGCAUGGUCCCAGCCUCCUCGCUGGCGCCGGCUGGGCAACAUUCCGAGGGGACCGUCCCCUCGGUGAUGGCGAAUGGGACCCA, GGCCGGCAUGGUCCCAGCCUCCUCGCUGGCGCCGGCUGGGCAACAUUCCGAGGGGACCGUCAACUCGGUAAUGGCGAAUGGGACCCA is higher in self-cleavage: 0.375 for the first, 1.03 for the second.

Going from GGCCGGCAUGGUCCCAGCCUCUUCGCUGGCGCCGGCUGGGCAACAUUCCGAUGGGACCGUCCCCUCGGUAAUGGCGAAUGGGACCCA to GGCCGGCAUGGUCCCAGCCUCCUCGCUGGCGCCGGCUGGGCAACAUUCCGAGGGAACCGUCUCCUCGGUAAUGGCGAAUGGGACCCA, the self-cleavage rises from 0.795 to 1.03.

First: AGGCGGCAUGGUCCCAGCCUCCUCGCUGGCGCCGGCUGGGCAACAUUCCGAGGGGACCGUCCCCUCGGUAAUGGCGAAUGGGACCCA
Second: GGCCGGCAUGGUCCCAGCCUCCUCGCUGGCGUCGGCUGGGCAACAUUCCGAGGGGACCGUCCCCUCGCUAAUGGCGAAUGGGACCCA
The self-cleavage of the first is lower: 0.227 for the first, 0.803 for the second.

Compared with GGCCGGCAUGGUCCCAGCCUCCUCGCUGGCGCCGGCUGGGCAUCAUUCCGAGGGGACCCUCCCCUCGGUAAUGGCGAAUGGGACCCA, GGCCGGCAUGGUCCCAGCCUCCUCGCUGGCGCCGGCUGGGCAACAAUCCGAGGGGACCGUCCCCUCGGUAAUGGCGAAUGGGACCAA is higher in self-cleavage: 0.502 for the first, 0.958 for the second.
